{"source": "patent US9696316B2", "about": "“Conformationally dynamic peptides” (SYSTEM OF SYSTEMS ANALYTICS, INC., priority 2009, dated 2017)", "key": {"[1]": {"experiment": "Additional work on stability of the β-sheet conformation of variants", "format": "physicochemical", "conditions": "relative to parent sequence"}, "[2]": {"target": "Aβ oligomer (Homo sapiens, UniProt P05067)", "sequence (P05067 672-713 limits assumed)": "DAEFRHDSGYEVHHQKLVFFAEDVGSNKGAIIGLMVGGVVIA", "experiment": "Aβ oligomer assay with FRET-labeled probes", "format": "binding", "conditions": "FAM/EDANS labeled, water (FIG. 10 bottom panel B: increased β-sheet, FRET signal)", "text": "Alternatively, as illustrated in bottom panel B of FIG. 10, a peptide probe can be labeled at each terminus with members of a FRET pair (e.g. FAM and EDANS)."}, "[3]": {"target": "T1, Aβ42 oligomer (Homo sapiens, UniProt P05067)", "T1 sequence (P05067 672-713 limits assumed)": "as above", "experiment": "Aqueous Aβ oligomer assay, pyrene fluorescence", "format": "binding", "conditions": "for reactivity with Aβ42 oligomers (transition from pyrene excimer fluorescence to pyrene self-fluorescence): aqueous assay", "text": "The conformation of peptide probe bound to the target protein can also be detected by measuring pyrene fluorescence, on the peptide alone and in combination with the target protein. […] The excimer fluorescence associated with the β-sheet conformation has a different wavelength than the monomer fluorescence associated with the alpha-helix conformation, and the excimer:monomer fluorescence ratio is 9:1. […] The addition of Aβ42 oligomer target protein results in a dose-dependent shift of the excimer:monomer fluorescence ratio to 20:1 at the highest Aβ42 oligomer concentration (0.3 μM). This change in excimer:monomer fluorescence ratio reflects a corresponding conformational change in the peptide, that results in increased β-sheet conformation, and decreased α helix conformation.\nAn Aβ oligomer assay may be conducted in an aqueous solvent, such as water. […] Upon introduction of Aβ oligomer, the fluorescence profile shifts to primarily self-fluorescence (monomeric) (see FIG. 11), which is associated with reduced β-sheet structure, or increased alpha helix structure.\nAs discussed above, Peptide 22 (SEQ ID NO: 2) undergoes a conformational change upon interaction with Aβ oligomer. FIG. 11 illustrates the fluorescence spectra for Peptide 22 labeled at each terminus with pyrene and incubated in aqueous conditions for several hours at room temperature in 10 mM Hepes (pH 7.0). […] (solid line=Time 0; dashed line=3 hours; dotted line=18 hours).\nPeptide 22 (100 nM) is incubated in water for 15 hours at room temperature with equimolar concentrations ([…]) of several potential Aβ substrates: Aβ42 oligomer (type 1); Aβ42 oligomer (type 2); Aβ1-42 monomer; Aβ1-40 monomer; Aβ1-42 fiber; Aβ1-40 fiber; bovine serum albumin (control substrate); and carbonic anhydrase (control substrate).\nWith reference to FIG. 13A, Peptide 22 (70 nM) is incubated with […] synthetic Aβ42 oligomer at 25 C, and fluorescence emission spectra is recorded after 3 hours incubation. […] (solid line—no Aβ42 oligomer; dashed/dot line—30 nN Aβ42 oligomer; large dashed line—100 nN Aβ42 oligomer; small dashed line—300 nN Aβ42 oligomer)"}, "[4]": {"experiment": "CD analysis of peptide probe conformation under different pH and salt conditions", "format": "physicochemical", "description": "As discussed in Example 2, histidine and glutamic acid residue substitutions were introduced into Peptides 22, 38 and 45 (SEQ ID NOs: 2-4) so as to permit the formation salt bridges between those residues. CD analysis can be performed on such peptides under different pH and salt conditions to determine the conformation of the peptide under given conditions.\nPeptide 38 (SEQ ID NO:3) labeled at each terminus with a pyrene moiety is used in this example. […] The addition of 500 mM NaCl greatly diminishes the alpha helix conformation in favor of a β-sheet conformation, at both pH levels. Thus, at pH 7, in the presence of 500 mM NaCl (large dashed line), the alpha helix content is 4%, while the fβ-sheet content is 40% (up from 10% without the salt). At pH 4, in the presence of 500 mM NaCl (dashed/dot line), the alpha helix content is 6%, while the β-sheet content is 52% (up from 4% without the salt). […] At greater salt concentrations, the salt bridge is destroyed, and the α helical conformation is no longer stabilized."}, "[5]": {"target": "T1, Aβ42 oligomer", "experiment": "CD analysis of peptide probe with target protein", "format": "binding", "text": "The conformation of the peptide probe bound to the target protein can be assessed by CD analysis. […] The peptide alone is highly alpha helical (36%). Upon mixing of Peptide 38 with the target protein, the peptide undergoes a conformation shift that results in increased β-sheet conformation, and decreased α helix conformation. That is, the secondary structure of Peptide 38 is altered such that the proportion of a helix is halved (18%), while the proportion of β-sheet structure is enhanced from 20% to 31%. […] Circular dichroism (CD) analysis is used to determine the secondary structure of Peptide 22, synthetic Aβ42 oligomer, and a mixture thereof. Samples are incubated in 10 mM sodium phosphate (pH 7.0) for 3 hours at room temperature before measuring CD. For each sample, the relative ellipticity is evaluated from 190-260 nm. […] Each data set represents the average of three separate spectral scans."}, "[6]": {"conditions": "mixed with Aβ42 oligomer (FIG. 8)"}}, "note": "Ends that are not written are not given here. * marks the point of attachment. EDANS = O=S(=O)(O)c1cccc2c(NCCN*)cccc12; FAM = 5(6)carboxyfluorescein", "data": [{"substance": "KLVFFAEDVGSNKDAIIELMK (KLVFFAEDVGSNKDAIIELMK) [AD328, P22, with point mutation H29D]", "values": [{"measurement": "effect of the substitutions on the β-sheet conformation of the probe", "setting": "[1]", "result": "destabilize the β-sheet conformation"}]}, {"substance": "(FAM)EAA KLVFFAEDEGSRKHAIEGLMEGE(EDANS) ({FAM}-EAAKLVFFAEDEGSRKHAIEGLMEGE(EDANS); not fully specified (C-terminus)) [AD 290, P59, with FAM and EDANS, additional Ala, and solubilizing E residue]", "values": [{"measurement": "FRET fluorescence behavior upon introduction of Aβ oligomer", "setting": "[2]", "result": "fluorescence behavior consistent with this type of conformation change"}]}, {"substance": "KLVFFAEDAAAAKHAIIELMK (KLVFFAEDAAAAKHAIIELMK) [Peptide 38, Salt bridge at G29H and G33E; Ala substitutions to increase alpha-helicity]", "values": [{"measurement": "reactivity with Aβ42 oligomers (transition from pyrene excimer fluorescence to pyrene self-fluorescence)", "setting": "[3]", "result": "react with Aβ42 oligomers"}, {"measurement": "preferential binding by state of self-aggregation of Aβ protein", "setting": "[3]; versus monomers, fibers and control proteins", "result": "preferentially binds to Aβ protein in the form of soluble Aβ oligomers"}, {"measurement": "alpha helix content (CD)", "setting": "[4]; pH 4, 500 mM NaCl", "result": 6, "unit": "%"}, {"measurement": "β-sheet content (CD)", "setting": "[4]; pH 4, 500 mM NaCl", "result": 52, "unit": "%"}, {"measurement": "alpha helix content (CD)", "setting": "[4]; pH 4, no added salt", "result": 52, "unit": "%"}, {"measurement": "β-sheet content (CD)", "setting": "[4]; pH 4, without the salt", "result": 4, "unit": "%"}, {"measurement": "alpha helix content (CD)", "setting": "[4]; pH 7, 500 mM NaCl", "result": 4, "unit": "%"}, {"measurement": "β-sheet content (CD)", "setting": "[4]; pH 7, 500 mM NaCl", "result": 40, "unit": "%"}, {"measurement": "alpha helix content (CD)", "setting": "[4]; pH 7, no added salt", "result": 38, "unit": "%"}, {"measurement": "β-sheet content (CD)", "setting": "[4]; pH 7, without the salt", "result": 10, "unit": "%"}, {"measurement": "proportion of alpha helix (CD)", "setting": "[5]; [6]", "result": 18, "unit": "%"}, {"measurement": "proportion of β-sheet structure (CD)", "setting": "[5]; [6]", "result": 31, "unit": "%"}, {"measurement": "proportion of alpha helix (CD)", "setting": "[5]; peptide alone (FIG. 8)", "result": 36, "unit": "%"}, {"measurement": "proportion of β-sheet structure (CD)", "setting": "[5]; peptide alone (FIG. 8)", "result": 20, "unit": "%"}]}, {"substance": "KLVFFAEDVGSNKHADIELMK (KLVFFAEDVGSNKHADIELMK) [AD330, P22, with point mutation I31D]", "values": [{"measurement": "effect of the substitutions on the β-sheet conformation of the probe", "setting": "[1]", "result": "destabilize the β-sheet conformation"}]}, {"substance": "(FAM)HHQ KLVFFAEDEGSRKHAIEGLMEGE(EDANS) ({FAM}-HHQKLVFFAEDEGSRKHAIEGLMEGE(EDANS); not fully specified (C-terminus)) [AD 291, P77, with FAM and EDANS and solubilizing E residue]", "values": [{"measurement": "FRET fluorescence behavior upon introduction of Aβ oligomer", "setting": "[2]", "result": "fluorescence behavior consistent with this type of conformation change"}]}, {"substance": "KLVFFAEDVGSNKGAISGLMK (KLVFFAEDVGSNKGAISGLMK) [Peptide 132S, Wildtype, with I32S point mutation]", "values": [{"measurement": "effect of the substitutions on the β-sheet conformation of the probe", "setting": "[1]", "result": "destabilize the β-sheet conformation"}]}, {"substance": "(FAM)EFR HDSGYEVHHQKLVFFAEDVGSNKGAIIGLME(EDANS) (EFRHDSGYEVHHQKLVFFAEDVGSNKGAIIGLME; not fully specified; FAM and EDANS labels) [AD292, Aβ residues 3-35, with FAM and EDANS and solubilizing E residue]", "values": [{"measurement": "FRET fluorescence behavior upon introduction of Aβ oligomer", "setting": "[2]", "result": "fluorescence behavior consistent with this type of conformation change"}]}, {"substance": "KLVFFAEDVGSNKHAIIEDMK (KLVFFAEDVGSNKHAIIEDMK) [AD329, P22, with point mutation L34D]", "values": [{"measurement": "effect of the substitutions on the β-sheet conformation of the probe", "setting": "[1]", "result": "destabilize the β-sheet conformation"}]}, {"substance": "(FAM)KLVFF AEDVG SNKBA IIELM E(EDANS) [AD293]", "values": [{"measurement": "FRET fluorescence behavior upon introduction of Aβ oligomer", "setting": "[2]", "result": "fluorescence behavior consistent with this type of conformation change"}]}, {"substance": "KLVFFAEDVGSNKDADIELMK (KLVFFAEDVGSNKDADIELMK) [AD323, P22, with point mutations H29D and I31D]", "values": [{"measurement": "effect of the substitutions on the β-sheet conformation of the probe", "setting": "[1]", "result": "destabilize the β-sheet conformation"}]}, {"substance": "KLVSFAEDVGSNKHAIIELMK (KLVSFAEDVGSNKHAIIELMK) [GM6 variation 1, P22, with point mutation F19S]", "values": [{"measurement": "effect of the substitutions on the β-sheet conformation of the probe", "setting": "[1]", "result": "destabilize the β-sheet conformation"}]}, {"substance": "KLVFFAEDVGDNKHAIIELMK (KLVFFAEDVGDNKHAIIELMK) [AD325, P22, with point mutation 526D]", "values": [{"measurement": "effect of the substitutions on the β-sheet conformation of the probe", "setting": "[1]", "result": "destabilize the β-sheet conformation"}]}, {"substance": "KLVFFAEDVGSNKKAIIELMK (KLVFFAEDVGSNKKAIIELMK) [Peptide 22 variation 2, Salt bridge at G29K and G33E]", "values": [{"measurement": "reactivity with Aβ42 oligomers (transition from pyrene excimer fluorescence to pyrene self-fluorescence)", "setting": "[3]", "result": "react with Aβ42 oligomers"}]}, {"substance": "KLVFFAEDVGSNKRAIIELMK (KLVFFAEDVGSNKRAIIELMK) [Peptide 22 variation 1, Salt bridge at G29R and G33E]", "values": [{"measurement": "reactivity with Aβ42 oligomers (transition from pyrene excimer fluorescence to pyrene self-fluorescence)", "setting": "[3]", "result": "react with Aβ42 oligomers"}]}, {"substance": "KLVFFAEDVGDNKHADIELMK (KLVFFAEDVGDNKHADIELMK) [AD327, P22, with point mutation S26D, I31D]", "values": [{"measurement": "effect of the substitutions on the β-sheet conformation of the probe", "setting": "[1]", "result": "destabilize the β-sheet conformation"}]}, {"substance": "KLVSFAEDVGSNKHAIIEPMK (KLVSFAEDVGSNKHAIIEPMK) [GM6, P22, with point mutations F19S, L34P]", "values": [{"measurement": "effect of the substitutions on the β-sheet conformation of the probe", "setting": "[1]", "result": "destabilize the β-sheet conformation"}]}, {"substance": "KAAA KLVFFAEDVGSNKHAIIELMK (KAAAKLVFFAEDVGSNKHAIIELMK) [Peptide 45, Salt bridge at G29H and G33E; Ala additions to increase alpha-helicity]", "values": [{"measurement": "reactivity with Aβ42 oligomers (transition from pyrene excimer fluorescence to pyrene self-fluorescence)", "setting": "[3]", "result": "react with Aβ42 oligomers"}]}]}
